Experimental findings from US20090099029A1, “Methods and substrates for conducting assays” (Invitrogen Corporation, priority 2005, published 2009) are described below.

This series concerns kinases of Table 6 on Myelin Basic Protein (MBP). Description: Kinase assay using MBP substrate, ProQ Diamond stain (Table 6). It is filed as biochemical. The following applies: kinase printed on MBP-coated slide; 20 uM ATP, 30° C.; ProQ Diamond Microarray Stain; graded Strong/Weak/Negative. Summed up: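 Reactions ran at 30° C. with 20 uM ATP, 4 mM MgCl2 and 5% DMSO in HEPES pH 7.5, inhibitor added or omitted. Kinases had been arrayed onto slide-bound dephosphorylated bovine MBP; phospho-signal read after ProQ Diamond staining.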

B1: AKT2 (protein)
chain: MNEVSVIKEGWLHKRGEYIKTWRPRYFLLKSDGSFIGYKERPEAPDQTLPPLNNFSVAECQLMKTERPRPNTFVIRCLQWTTVIERTFHVDSPDEREEWMRAIQMVANSLKQRAPGEDPMDYKCGSPSDSSTTEEMEVAVSKARAKVTMNDFDYLKLLGKGTFGKVILVREKATGRYYAMKILRKEVIIAKDEVAHTVTESRVLQNTRHPFLTALKYAFQTHDRLCFVMEYANGGELFFHLSRERVFTEERARFYGAEIVSALEYLHSRDVVYRDIKLENLMLDKDGHIKITDFGLCKEGISDGATMKTFCGTPEYLAPEVLEDNDYGRAVDWWGLGVVMYEMMCGRLPFYNQDHERLFELILMEEIRFPRTLSPEAKSLLAGLLKKDPKQRLGGGPSDAKEVMEHRFFLSINWQDVVQKKLLPPFKPQVTSEVDTRYFDDEFTAQSITITPPDRYDSLGLLELDQRTHFPQFSYSASIRE
modifications: left off: small tags and cut ends
On to B1, for which the “MBP Kinase Activity” value was “Strong”.

B2: AKT3 (protein)
chain: MSDVTIVKEGWVQKRGEYIKNWRPRYFLLKTDGSFIGYKEKPQDVDLPYPLNNFSVAKCQLMKTERPKPNTFIIRCLQWTTVIERTFHVDTPEEREEWTEAIQAVADRLQRQEEERMNCSPTSQIDNIGEEEMDASTTHHKRKTMNDFDYLKLLGKGTFGKVILVREKASGKYYAMKILKKEVIIAKDEVAHTLTESRVLKNTRHPFLTSLKYSFQTKDRLCFVMEYVNGGELFFHLSRERVFSEDRTRFYGAEIVSALDYLHSGKIVYRDLKLENLMLDKDGHIKITDFGLCKEGITDAATMKTFCGTPEYLAPEVLEDNDYGRAVDWWGLGVVMYEMMCGRLPFYNQDHEKLFELILMEDIKFPRTLSSDAKSLLSGLLIKDPNKRLGGGPDDAKEIMRHSFFSGVNWQDVYDKKLVPPFKPQVTSETDTRYFDEEFTAQTITITPPEKYDEDGMDCMDNERRPHFPQFSYSASGRE
modifications: left off: small tags and cut ends
As for B2, the “MBP Kinase Activity” value is reported as “Strong”.

B3: CSF1R (protein)
chain: YKYKQKPKYQVRWKIIESYEGNSYTFIDPTQLPYNEKWEFPRNNLQFGKTLGAGAFGKVVEATAFGLGKEDAVLKVAVKMLKSTAHADEKEALMSELKIMSHLGQHENIVNLLGACTHGGPVLVITEYCCYGDLLNFLRRKAEAMLGPSLSPGQDPEGGVDYKNIHLEKKYVRRDSGFSSQGVDTYVEMRPVSTSSNDSFSEQDLDKEDGRPLELRDLLHFSSQVAQGMAFLASKNCIHRDVAARNVLLTNGHVAKIGDFGLARDIMNDSNYIVKGNARLPVKWMAPESIFDCVYTVQSDVWSYGILLWEIFSLGLNPYPGILVNSKFYKLVKDGYQMAQPAFAPKNIYSIMQACWALEPTHRPTFQQICSFLQEQAQEDRRERDYTNLPSSSRSGGSGSSSSELEEESSSEHLTCCEQGDIAQPLLQPNNYQFC
modifications: left off: small tags and cut ends
For B3, the “MBP Kinase Activity” value is “Strong”.
